Measurements published in paper PMC5097169, “Acetylation of histone H4 lysine 5 and 12 is required for CENP-A deposition into centromeres” (Nature Communications, 2016).

Target: T1, Flag RbAp46 (Xenopus, recombinant) (Xenopus, UniProt Q8AVH1 1-425)
T1 construct: RbAp46, Xenopus (xRbAp46); also called xRbAp46
Assay: pull-down; GST-histone tails coupled to NHS Sepharose (20 μl resin) with 0.7 μg Hat1, RbAp46 or RbAp48, or RbAp46 with Hat1, in 150 μl 20 mM K-HEPES pH 7.4, 50 mM KCl, 0.1% Tween-20, 5 mM DTT; 2 h at 4 °C; washes with 300 mM KCl; coomassie-stained gel
Details: both partners purified

T1 sequence (Q8AVH1 whole entry): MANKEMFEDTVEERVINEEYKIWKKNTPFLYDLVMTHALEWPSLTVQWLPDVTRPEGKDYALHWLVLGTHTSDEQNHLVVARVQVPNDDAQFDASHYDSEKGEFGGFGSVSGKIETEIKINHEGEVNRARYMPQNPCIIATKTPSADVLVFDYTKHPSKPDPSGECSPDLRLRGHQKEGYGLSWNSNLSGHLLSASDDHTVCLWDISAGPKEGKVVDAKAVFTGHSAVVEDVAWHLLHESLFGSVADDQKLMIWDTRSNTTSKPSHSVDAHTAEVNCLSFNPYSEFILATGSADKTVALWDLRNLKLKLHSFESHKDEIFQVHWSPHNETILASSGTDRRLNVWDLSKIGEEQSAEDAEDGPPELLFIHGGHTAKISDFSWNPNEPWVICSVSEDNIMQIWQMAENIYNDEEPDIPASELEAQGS

B1: GST fusion to Xenopus laevis CENP-A amino terminus (amino acids 1–50) (domain or fragment, UniProt Q569M3 1-50, looked up)
chain: MRPGSTPPSRRKSRPPRRVSPPLPTTSRTSPRRPHAQQQRRASRASPKKR
notes: CENP-A, Xenopus laevis, amino terminus, amino acids 1–50, in pGEX-6P-1; also called GST-CENP-A N-terminal tail; xCENP-A N-terminus
binding result: binds
